Experiment [1] has as its target BRD4 (bromodomain-containing protein 4) (UniProt Q9ESU6). Nature of the experiment: co-immunoprecipitation (IP: BMAL1) with immunoblot, chemiluminescence band intensity. The settings on record: nuclear extracts, synchronized fibroblasts 24 hr after Dex, scale: relative band intensity.
The target in experiment [2] is CDK9 (cyclin-dependent kinase 9) (UniProt Q99J95). The experiment is described as above. As to conditions: nuclear extracts, synchronized fibroblasts 24 hr after Dex, scale: relative band intensity.
[3] abbreviates: highest amount of IP (two-fold dilution series, lane 3 of 3).
The mark [4] stands for this setting: lowest amount of IP (two-fold dilution series, lane 1 of 3).
Where [5] appears, read: middle amount of IP (two-fold dilution series, lane 2 of 3).

“BMAL1 (brain and muscle ARNT-like protein 1) K538R”: the response is 0.1 in experiment [1] (setting [3]); 0.02 in experiment [1] (setting [4]); 0.06 in experiment [1] (setting [5]); 0.07 in experiment [2] (setting [3]); 0.01 in experiment [2] (setting [4]); 0.03 in experiment [2] (setting [5]).

The record behind these values is publication PMC6650244.
